How the values were obtained:
[1] = target: human CUB domain-containing protein 1 (CDCP1), expressed by cells (human) (UniProt Q9H5V8); experiment: flow cytometry of TKCC10 cells, 5 µg/ml antibody, APC-conjugated anti-mouse secondary; number in the IgG column (paragraph 330 calls the numbers of the 10D7 column MFI)
[2] = target: human CUB domain-containing protein 1 (CDCP1), expressed by cells (human) (UniProt Q9H5V8); experiment: flow cytometry of TKCC02 cells, 5 µg/ml antibody, APC-conjugated anti-mouse secondary; number in the IgG column (paragraph 330 calls the numbers of the 10D7 column MFI)
[3] = target: human CUB domain-containing protein 1 (CDCP1), expressed by cells (human) (UniProt Q9H5V8); experiment: flow cytometry of TKCC05 cells, 5 µg/ml antibody, APC-conjugated anti-mouse secondary; number in the IgG column (paragraph 330 calls the numbers of the 10D7 column MFI)
[4] = target: human CUB domain-containing protein 1 (CDCP1), expressed by cells (human) (UniProt Q9H5V8); experiment: flow cytometry of PANC-1 cells, 5 µg/ml antibody, APC-conjugated anti-mouse secondary; number in the IgG column (paragraph 330 calls the numbers of the 10D7 column MFI)
[5] = system: CDCP1^GFP in HEY cells; experiment: Live-cell spinning-disk confocal microscopy of HEY-CDCP1^GFP cells; format: cell-based; conditions: dasatinib 200 nM pre-treatment
Description: Live-cell spinning-disk confocal imaging was performed as described (Stehbens S J, et al., (2014) 16(6):561-73.) on an environmentally controlled Nikon TI inverted microscope (Nikon, New York) equipped with a Borealis-modified Yokogawa CSU-X1 confocal head (Spectral Applied Research, Ontario Canada) and a Clara cooled interline charge-coupled device (CCD) camera (Andor Technology, Belfast, United Kingdom). Dynamics of fluorescent proteins were imaged at 37° C. using a 60×1.49 NA objective (Nikon) with imaging of CDCP1^GFP internalization induced by 10D7^pH performed at ˜1 frame/sec. Image analysis and quantification was performed using Imaris 7.1 software (Bitplane, Zurich, Switzerland) (Morton J P, et al., (2010) 139(1):292-303.). Briefly, the Spots creation wizard automatically subtracted background and detected CDCP1^GFP puncta which were filtered for analysis based on threshold values above 20 for ‘quality’ defined as the intensity at the centre of the puncta, Gaussian filtered by […] (Doyon J B, et al., (2011)13(3):331-7.). Puncta were tracked over sequential frames using the Autoregressive motion particle-tracking algorithm. […] Quantification of track length during the period 0-5 min was determined from the 100 tracks with the highest velocity in each experimental group. […]

[6] = target: T1, recombinant CDCP1-ECD, spanning residue 30 to 665 (human, UniProt Q9H5V8 30-665); experiment: SPR (Biacore T200), antibody captured via Protein G on a CM5 chip, CDCP1-ECD 1.56 to 50 nM as analyte, 25 °C
T1 construct: Recombinant protein described in Chen Y et al. 2017; also called CDCP1 extracellular domain (ECD)
T1 sequence: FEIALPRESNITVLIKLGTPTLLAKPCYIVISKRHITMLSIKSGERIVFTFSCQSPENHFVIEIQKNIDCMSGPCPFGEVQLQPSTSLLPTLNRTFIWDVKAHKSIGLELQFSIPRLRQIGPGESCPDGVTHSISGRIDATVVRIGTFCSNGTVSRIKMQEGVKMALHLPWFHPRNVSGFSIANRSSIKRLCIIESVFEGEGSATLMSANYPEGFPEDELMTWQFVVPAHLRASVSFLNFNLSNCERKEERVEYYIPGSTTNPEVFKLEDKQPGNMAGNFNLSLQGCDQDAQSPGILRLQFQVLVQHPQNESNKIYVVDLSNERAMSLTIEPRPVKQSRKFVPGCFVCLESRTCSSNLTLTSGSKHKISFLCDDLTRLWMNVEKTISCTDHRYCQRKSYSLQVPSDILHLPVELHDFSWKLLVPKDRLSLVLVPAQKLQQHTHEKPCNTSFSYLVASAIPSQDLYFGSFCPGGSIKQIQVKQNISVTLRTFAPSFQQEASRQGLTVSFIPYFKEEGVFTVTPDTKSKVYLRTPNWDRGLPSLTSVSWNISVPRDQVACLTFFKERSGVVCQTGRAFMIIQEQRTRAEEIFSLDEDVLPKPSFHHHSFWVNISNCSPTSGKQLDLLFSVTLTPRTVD

[7] = target: T1, recombinant CDCP1-ECD, spanning residue …; experiment: SPR, Biacore T200, antibody captured via Protein G on CM5 chip, CDCP1-ECD analyte 50 to 1.56 nM, 25 C
[8] = target: T1, recombinant CDCP1-ECD, spanning residue …; experiment: SPR, Biacore T200, antibody captured via Protein G, CDCP1-ECD analyte; reference 41-2
[9] = target: T2, human CUB domain-containing protein 1 (CDCP1), expressed by cells (human, UniProt Q9H5V8 30-836); experiment: summary of co-IP, SEC and reducing/non-reducing Western blots
T2 construct: also called CDCP1-FL; CD318
T2 sequence: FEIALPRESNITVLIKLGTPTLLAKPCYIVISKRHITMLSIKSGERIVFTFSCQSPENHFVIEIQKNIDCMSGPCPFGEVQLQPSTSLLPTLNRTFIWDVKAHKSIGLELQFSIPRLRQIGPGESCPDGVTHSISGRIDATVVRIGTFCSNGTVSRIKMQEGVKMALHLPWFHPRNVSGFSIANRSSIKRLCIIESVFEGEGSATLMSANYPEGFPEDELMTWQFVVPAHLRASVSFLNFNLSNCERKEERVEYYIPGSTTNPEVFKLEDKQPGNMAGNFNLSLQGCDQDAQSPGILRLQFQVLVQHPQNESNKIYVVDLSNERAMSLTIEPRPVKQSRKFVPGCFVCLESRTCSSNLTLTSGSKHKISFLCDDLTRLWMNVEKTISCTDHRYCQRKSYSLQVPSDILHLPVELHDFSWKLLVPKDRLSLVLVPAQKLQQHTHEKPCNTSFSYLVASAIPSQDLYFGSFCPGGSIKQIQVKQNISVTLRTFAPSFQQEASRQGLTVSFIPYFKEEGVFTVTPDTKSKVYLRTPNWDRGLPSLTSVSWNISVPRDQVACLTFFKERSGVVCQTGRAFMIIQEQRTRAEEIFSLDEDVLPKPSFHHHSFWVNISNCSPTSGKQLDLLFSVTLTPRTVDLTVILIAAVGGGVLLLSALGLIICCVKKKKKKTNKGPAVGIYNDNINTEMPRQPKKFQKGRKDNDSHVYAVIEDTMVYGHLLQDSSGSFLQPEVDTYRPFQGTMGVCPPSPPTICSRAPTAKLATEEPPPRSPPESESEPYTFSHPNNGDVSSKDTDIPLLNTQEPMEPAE

[10] = system: TKCC05 cells; experiment: Confocal microscopy of TKCC05 cells treated with 10D7-Qdot; format: cell-based, human
Description: Labelling of antibody 10D7 with fluorescent Qdot 625 probes was performed using a kit supplied by the manufacturer. TKCC05 cells were grown on poly-Lysine treated […] chamber slides (DKSH, Hallam, Australia) until 70% confluent then incubated with 10D7-Qdot. After 5, 10 and 120 min cells were fixed with 4% paraformaldehyde for 15 min at room temperature (RT), washed with PBS, then incubated with DAPI to highlight cell nuclei and Alexa Fluor 488 phalloidin to highlight cell cytoplasms (30 min at RT). Imaging was performed on a Nikon/Spectral Spinning Disc Confocal microscope.
To assess the impact of antibody 10D7 on CDCP1 expressed by PDAC, the inventors performed confocal microscopy and western blot analysis of patient-derived PDAC cells treated with this antibody for defined periods of time. […] Western blot analysis confirmed that 10D7 induces rapid transient tyrosine phosphorylation of CDCP1-ATF in TKCC05 cells and CDCP1-FL in TKCC10 cells, while Src was also transiently tyrosine phosphorylated in these cells in response to 10D7 (FIG. 11B). […] The data are consistent with CDCP1-ATF remaining tethered to the plasma membrane likely via CDCP1-CTF and indicate that intact and cleaved CDCP1 can be functionally targeted with antibody 10D7 in PDAC cells. Thus, antibody 10D7 is effective at targeting uncleaved as well as cleaved CDCP1 that are present on the surface of cancer cells.

Which MFI [1] does the source give for IgG (antibody) here?
Its MFI is 133.

And the MFI [2]?
The MFI was 216.

And the MFI [3]?
The MFI was 234.

And the MFI [4]?
The MFI was 202.

For `Cc1nc(Nc2ncc(C(=O)Nc3c(C)cccc3Cl)s2)cc(N2CCN(CCO)CC2)n1` [dasatinib], which “reduction of CDCP1^GFP track length in response to 10D7” value [5] is on record?
Its value is “about 80%”.

B1: anti-CDCP1 mouse monoclonal antibody 10D7 (antibody, V domains shown)
VH: EVQLQQFGAELVKPGASVKISCKASGYSFSDFNIEWLKQSHGKSLEWIGDINPNYDSTNYNQKFKGRATLTVDKSSSTAYMEVRSLTSEDTAVYYCARLGYGYAMDYWGQGTSVTVSS
VL: NIVMTQSPQSMSMSVGERVTLSCKASENVGAYVSWFQQKPDQSPKLLILAASNRYTGVPARFIGSGSATDFTLTISSVQAEDLADYHCGQSYTYPYTFGGGTKLEIKR
notes: also called mAb 10D7; mouse 10D7 antibody
Which results are given for B1?
koff [6]: 0.000441 s⁻¹; kon [6]: 1e+06 M⁻¹ s⁻¹; Kd [7]: 0.44 nM; fold stronger KD than 41-2 [8]: 2.7 fold

B2: CDCP1 amino-terminal fragment (CDCP1-ATF), 65 kDa (receptor)
chain: FEIALPRESNITVLIKLGTPTLLAKPCYIVISKRHITMLSIKSGERIVFTFSCQSPENHFVIEIQKNIDCMSGPCPFGEVQLQPSTSLLPTLNRTFIWDVKAHKSIGLELQFSIPRLRQIGPGESCPDGVTHSISGRIDATVVRIGTFCSNGTVSRIKMQEGVKMALHLPWFHPRNVSGFSIANRSSIKRLCIIESVFEGEGSATLMSANYPEGFPEDELMTWQFVVPAHLRASVSFLNFNLSNCERKEERVEYYIPGSTTNPEVFKLEDKQPGNMAGNFNLSLQGCDQDAQSPGILRLQFQVLVQHPQNESNKIYVVDLSNERAMSLTIEPRPVKQSR
notes: Product of proteolytic cleavage of CDCP1
Does B2 bind [9]?
Result: binds

B3: 10D7-Qdot (conjugate)
VH: B1 VH
VL: NIVMTQSPQSMSMSVGERVTLSCKASENVGAYVSWFQQKPDQSPKLLILAASNRYTGVPARFIGSGSATDFTLTISSVQAEDLADYHCGQSYTYPYTFGGGTKLEIKRADAAPTVS
For B3, which “time until apparent on the plasma membrane” value [10] is on record?
The value was ≤ 5 min.

And the internalization of antibody ([10]; after 120 min)?
Its internalization of antibody is “largely internalized”.
